According to publication PMC7994789, “Glycosyltransferase POMGNT1 deficiency strengthens N-cadherin-mediated cell–cell adhesion” (The Journal of Biological Chemistry, 2021):

Biological target: the molecule itself
Experiment: bead aggregation assay; EC-N-Cdh coated on Dynabeads (40 μg protein per 40 μl beads, o/n 4 °C); binding buffer 50 mM Tris-HCl pH 7.2, 100 mM NaCl, 10 mM KCl, 0.2% BSA; 2 mM CaCl2 (2 mM EDTA as control); room temperature; aggregate size imaged over 1 h

Row | Protein | binding result
1 | recombinant extracellular domain (EC) of N-cadherin (EC-N-Cdh) purified from ΔPOMGnT1 HEK293T cells (domain or fragment, mouse, UniProt P15116 160-724, looked up, N-glycans at Asn273, 325, 402, 572, 622, 651, 692: nongalactosylated complex-type N-glycans with a bisecting GlcNAc dominate at all sites except Asn651 and Asn692; galactosylation (-27% on average) and sialylation (-16% on average) decreased against the WT-derived protein; O-mannosylation as in the WT-derived protein, N-cadherin (neural cadherin), mouse, extracellular domain (EC1-EC5) amplified from mouse cDNA; same construct as m1, other host cells; Same polypeptide as m1; It differs only in the N-glycans, because it was made in POMGNT1 knockout cells; See the note of m1 for the limits read from the primers; also called ΔPOMGnT1-derived N-Cdh; N-Cdh from ΔPOMGnT1 cells; source: ΔPOMGnT1 (POMGNT1 knockout) …) DWVIPPINLPENSRGPFPQELVRIRSDRDKNLSLRYSVTGPGADQPPTGIFIINPISGQLSVTKPLDRELIARFHLRAHAVDINGNQVENPIDIVINVIDMNDNRPEFLHQVWNGSVPEGSKPGTYVMTVTAIDADDPNALNGMLRYRILSQAPSTPSPNMFTINNETGDIITVAAGLDREKVQQYTLIIQATDMEGNPTYGLSNTATAVITVTDVNDNPPEFTAMTFYGEVPENRVDVIVANLTVTDKDQPHTPAWNAAYRISGGDPTGRFAILTDPNSNDGLVTVVKPIDFETNRMFVLTVAAENQVPLAKGIQHPPQSTATVSVTVIDVNENPYFAPNPKIIRQEEGLHAGTMLTTLTAQDPDRYMQQNIRYTKLSDPANWLKIDPVNGQITTIAVLDRESPNVKNNIYNATFLASDNGIPPMSGTGTLQIYLLDINDNAPQVLPQEAETCETPEPNSINITALDYDIDPNAGPFAFDLPLSPVTIKRNWTINRLNGDFAQLNLKIKFLEAGIYEVPIIITDSGNPPKSNISILRVKVCQCDSNGDCTDVDRIVGAGLGTGA | binds
2 | recombinant extracellular domain (EC) of N-cadherin (EC-N-Cdh) purified from WT HEK293T cells (domain or fragment, mouse, UniProt P15116 160-724, looked up, N-glycans at Asn190 (scarcely), 273, 325, 402, 572, 622, 651, 692 (complex-type, Asn651 high-mannose-type); nonelongated O-linked mannose at 15 sites (Table S6), N-cadherin (neural cadherin), mouse, extracellular domain (EC1-EC5) amplified from mouse cDNA; Cloned AscI/XhoI into pSecTag2 (Invitrogen); also called WT-derived N-Cdh; N-Cdh extracellular domain; source: HEK293T (WT), stably transfected with pMLHD7, secreted into serum-free medium, purified (HisTrap); not shown: His8, C-terminal, kept) DWVIPPINLPENSRGPFPQELVRIRSDRDKNLSLRYSVTGPGADQPPTGIFIINPISGQLSVTKPLDRELIARFHLRAHAVDINGNQVENPIDIVINVIDMNDNRPEFLHQVWNGSVPEGSKPGTYVMTVTAIDADDPNALNGMLRYRILSQAPSTPSPNMFTINNETGDIITVAAGLDREKVQQYTLIIQATDMEGNPTYGLSNTATAVITVTDVNDNPPEFTAMTFYGEVPENRVDVIVANLTVTDKDQPHTPAWNAAYRISGGDPTGRFAILTDPNSNDGLVTVVKPIDFETNRMFVLTVAAENQVPLAKGIQHPPQSTATVSVTVIDVNENPYFAPNPKIIRQEEGLHAGTMLTTLTAQDPDRYMQQNIRYTKLSDPANWLKIDPVNGQITTIAVLDRESPNVKNNIYNATFLASDNGIPPMSGTGTLQIYLLDINDNAPQVLPQEAETCETPEPNSINITALDYDIDPNAGPFAFDLPLSPVTIKRNWTINRLNGDFAQLNLKIKFLEAGIYEVPIIITDSGNPPKSNISILRVKVCQCDSNGDCTDVDRIVGAGLGTGA | binds
